# In the supplement of paper PMC6757056:
# ± gives the standard deviation of the averaged measurements.
# B1: library; a variant is named by its letters at N, in order (parent)
# chain: GCUGUCACCGAGAAACUGUGAAGUAUAUCUUAAACCUGGGCACUUAAAAGAUAUAUGGAGUUAGUAGUGCAACCUGCUCGGUCUGAUGAGUCCNNNNNNGGACGAAACAGC
# Legend:
# [1] = variants of: B1; assay: FACS-Seq fitted mean relative fluorescence mCherry/BFP without ligand (log10 relative fluorescence); HEK293T; ligand: cyclic di-GMP (c-di-GMP-II aptamer); higher = higher reporter protein expression; conditions: ligand present: no
# Procedure, shortened: (§1)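 The ribozyme switch sat in an mCherry reporter, delivered by lentivirus into HEK293T libraries along with an EF1α-BFP marker. Enriched cells were incubated 48 h with or without ligand, sorted into 6 bins by mCherry/BFP, and bin genomic DNA was PCR-amplified, barcoded and MiSeq-sequenced. Fluorescence equals the fitted normal mean of the bin counts after normalization. Those log10(mCherry/BFP) means were scaled to five spiked-in control ribozymes.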
# [2] = variants of: B1; assay: normalized RNA/DNA level without ligand (relative to sTRSVctl = 100) (log10 (% of sTRSVctl)); HEK293T; ligand: cyclic di-GMP (c-di-GMP-II aptamer); higher = less ribozyme self-cleavage, higher mRNA level; conditions: reporter: mCherry (pCS4076), ligand present: no
# Method: (§2)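 Hammerhead (sTRSV) ribozyme switch libraries with a ligand aptamer grafted on stem I and a randomized N4-6 loop II, cloned into the 3' UTR of mCherry and transiently transfected into HEK293T cells; RNA-Seq 72 h post transfection with ligand added 1 h before transfection; RNA read count / plasmid DNA read count normalized to the non-cleaving sTRSVctl (x100), log10; sequences with >100 DNA reads. FACS-Seq: lentiviral library sorted into 6 bins after 48 h ligand, log-normal fit mean of mCherry/BFP scaled to controls. Printed sequences are partial switch sequences.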
# [3] = variants of: B1; assay: FACS-Seq fitted mean relative fluorescence mCherry/BFP with ligand (log10 relative fluorescence); HEK293T; ligand: cyclic di-GMP (c-di-GMP-II aptamer); ligand concentration (+) FACS-Seq: 1 mM; higher = higher reporter protein expression; conditions: ligand present: yes
# Procedure, shortened: as §1
# [4] = variants of: B1; assay: normalized RNA/DNA level with ligand (relative to sTRSVctl = 100) (log10 (% of sTRSVctl)); HEK293T; ligand: cyclic di-GMP (c-di-GMP-II aptamer); ligand concentration (+) RNA-Seq: 1 mM; higher = less ribozyme self-cleavage, higher mRNA level; conditions: reporter: mCherry (pCS4076), ligand present: yes
# Method: as §2
Variant,FACS-Seq fitted mean (log10) [1],normalized RNA/DNA level without ligand (log10) [2],FACS-Seq fitted mean (log10) [3],normalized RNA/DNA level with ligand (log10) [4]
GCUGUCACCGAGAAACUGUGAAGUAUAUCUUAAACCUGGGCACUUAAAAGAUAUAUGGAGUUAGUAGUGCAACCUGCUCGGUCUGAUGAGUCCUAUAGCGGACGAAACAGC,-0.313 ± 0.039,1.73 ± 0.044,-0.0839 ± 0.078,1.83 ± 0.19
GCUGUCACCGAGAAACUGUGAAGUAUAUCUUAAACCUGGGCACUUAAAAGAUAUAUGGAGUUAGUAGUGCAACCUGCUCGGUCUGAUGAGUCCUAUAGUGGACGAAACAGC,-0.943 ± 0.17,1.65 ± 0.03,-0.713 ± 0.099,1.79 ± 0.068
GCUGUCACCGAGAAACUGUGAAGUAUAUCUUAAACCUGGGCACUUAAAAGAUAUAUGGAGUUAGUAGUGCAACCUGCUCGGUCUGAUGAGUCCUAUAGAGGACGAAACAGC,-0.453 ± 0.17,1.65 ± 0.021,-0.265 ± 0.034,1.81 ± 0.15
GCUGUCACCGAGAAACUGUGAAGUAUAUCUUAAACCUGGGCACUUAAAAGAUAUAUGGAGUUAGUAGUGCAACCUGCUCGGUCUGAUGAGUCCCAUAGUGGACGAAACAGC,-0.641 ± 0.058,1.72 ± 0.025,-0.575 ± 0.046,1.85 ± 0.066
GCUGUCACCGAGAAACUGUGAAGUAUAUCUUAAACCUGGGCACUUAAAAGAUAUAUGGAGUUAGUAGUGCAACCUGCUCGGUCUGAUGAGUCCCAUCAAGGACGAAACAGC,-0.3769 ± 0.0032,1.32 ± 0.035,-0.0581 ± 0.076,1.57 ± 0.057
GCUGUCACCGAGAAACUGUGAAGUAUAUCUUAAACCUGGGCACUUAAAAGAUAUAUGGAGUUAGUAGUGCAACCUGCUCGGUCUGAUGAGUCCAAUAGUGGACGAAACAGC,-0.33379 ± 0.00027,1.6 ± 0.034,0.0812 ± 0.061,1.74 ± 0.11
GCUGUCACCGAGAAACUGUGAAGUAUAUCUUAAACCUGGGCACUUAAAAGAUAUAUGGAGUUAGUAGUGCAACCUGCUCGGUCUGAUGAGUCCAAUAGGGGACGAAACAGC,-0.474 ± 0.0071,1.5 ± 0.069,-0.162 ± 0.0064,1.68 ± 0.12
GCUGUCACCGAGAAACUGUGAAGUAUAUCUUAAACCUGGGCACUUAAAAGAUAUAUGGAGUUAGUAGUGCAACCUGCUCGGUCUGAUGAGUCCAAUAGAGGACGAAACAGC,-0.609 ± 0.01,1.39 ± 0.12,-0.411 ± 0.015,1.58 ± 0.08
GCUGUCACCGAGAAACUGUGAAGUAUAUCUUAAACCUGGGCACUUAAAAGAUAUAUGGAGUUAGUAGUGCAACCUGCUCGGUCUGAUGAGUCCUAUACUGGACGAAACAGC,0.0993 ± 0.048,1.722 ± 0.013,0.304 ± 0.012,1.85 ± 0.066
GCUGUCACCGAGAAACUGUGAAGUAUAUCUUAAACCUGGGCACUUAAAAGAUAUAUGGAGUUAGUAGUGCAACCUGCUCGGUCUGAUGAGUCCGAUACAGGACGAAACAGC,-0.276 ± 0.023,1.65 ± 0.032,-0.124 ± 0.088,1.8 ± 0.11
GCUGUCACCGAGAAACUGUGAAGUAUAUCUUAAACCUGGGCACUUAAAAGAUAUAUGGAGUUAGUAGUGCAACCUGCUCGGUCUGAUGAGUCCUAUAUCGGACGAAACAGC,-0.579 ± 0.13,1.71 ± 0.018,-0.583 ± 0.2,1.85 ± 0.12
GCUGUCACCGAGAAACUGUGAAGUAUAUCUUAAACCUGGGCACUUAAAAGAUAUAUGGAGUUAGUAGUGCAACCUGCUCGGUCUGAUGAGUCCCAUAUAGGACGAAACAGC,-0.483 ± 0.05,1.3 ± 0.14,-0.237 ± 0.014,1.51 ± 0.097
GCUGUCACCGAGAAACUGUGAAGUAUAUCUUAAACCUGGGCACUUAAAAGAUAUAUGGAGUUAGUAGUGCAACCUGCUCGGUCUGAUGAGUCCAAUACGGGACGAAACAGC,-0.6 ± 0.066,1.6 ± 0.058,-0.2 ± 0.094,1.78 ± 0.06
